Reference: patent US20250205308A1, “Supraparticles” (THE BIONICS INSTITUTE OF AUSTRALIA, priority 2017, published 2025)

Test: In vivo clearance of radiolabelled neurotrophin-3 from the cochlea after supraparticle implantation (whole cochlear gamma counts)
Protocol: In vivo studies were carried out to determine the drug payload and clearance of neurotrophin delivered in a supraparticle implanted into the ear after 4 hr, 3 day and 7 days of implantation. The objective was to determine the amount of neurotrophin remaining in the cochlea over time.
1 SP containing radiolabelled neurotrophin-3 was implanted into each cochlea. Cochleae were harvested following 4 hrs (n=5), 3d (n=7) or 7d (n=4). Whole cochlear gamma counts were measured to determine the clearance of neurotrophin-3 over time. After 1 week of implantation each SP contained ˜2 μg of neurotrophin-3 (˜40%) of initial loaded amount.
Further experiments (n=2) were carried out to examine clearance of neurotrophin-3 following round window delivery. 3 days after implantation-whole cochlear measurements were again used to determine the clearance of neurotrophin-3 from the round window membrane.

[1] = 1 SP implanted into each cochlea, after 1 week of implantation

## neurotrophin-3: Radiolabelled neurotrophin delivered in a supraparticle implanted into the cochlea
[1]
  neurotrophin-3 remaining (% of initial loaded amount): ~40%
  neurotrophin-3 remaining per SP: ~2 µg
Intracochlear delivery, 3 days
  neurotrophin-3 remaining: 56%
Round window delivery, 3 days after implantation
  neurotrophin-3 remaining: 47.4%
